# Values of other authors in publication PMC8410215.
# Target: Glu66 (UniProt position 148, FTKKMEENAKK)
# Settings: folded protein with Glu66 buried in the interior; water molecules penetrate to form a small channel around the residue
substance,measurement,value
Staphylococcal nuclease V66E variant (Staphylococcus aureus; V66E),pKa,8.8
